Data on four substances can be found in article PMC5156306.

The first assay deals with WT CCR5 (5555), HA-tagged, on transfected HEK293T cells (UniProt P51681). Kind of assay: competition assay, flow cytometry on cells. Particulars: 74.5 nM unlabeled LukE variant; DyLight488-LukE 595 nM; LukD DN 565 nM; parent: est. 13; read off a plot.
Consider “WT LukE LukE/LukS^DR1 (DR1, residues 57 to 75, replaced by the corresponding region of LukS-PV)”, for which the response came to 19 MFI.
Take “WT LukE LukE/LukS^DR2 (DR2, residues 140 to 150, replaced by the corresponding region of LukS-PV)”: the response amounted to 13 MFI.
Regarding “WT LukE LukE/LukS^DR3 (DR3, residues 164 to 178, replaced by the corresponding region of LukS-PV)”, the response is 15 MFI.
With “WT LukE LukE/LukS^DR4 (DR4, residues 182 to 196, replaced by the corresponding region of LukS-PV)”, the response was 12 MFI.

Still in this assay, the particulars now being: 149 nM unlabeled LukE variant; DyLight488-LukE 595 nM; LukD DN 565 nM; parent: est. 11; read off a plot.
For the substance “WT LukE LukE/LukS^DR1 (DR1, residues 57 to 75, replaced by the corresponding region of LukS-PV)”, the response came to 18 MFI.
“WT LukE LukE/LukS^DR2 (DR2, residues 140 to 150, replaced by the corresponding region of LukS-PV)”: the response was 11 MFI.
As for “WT LukE LukE/LukS^DR3 (DR3, residues 164 to 178, replaced by the corresponding region of LukS-PV)”, the response came to 12 MFI.
Turning to “WT LukE LukE/LukS^DR4 (DR4, residues 182 to 196, replaced by the corresponding region of LukS-PV)”, the response was 9.9 MFI.

Staying with this assay, now noted: 298 nM unlabeled LukE variant; DyLight488-LukE 595 nM; LukD DN 565 nM; parent: est. 10; read off a plot.
As for “WT LukE LukE/LukS^DR1 (DR1, residues 57 to 75, replaced by the corresponding region of LukS-PV)”, the response amounted to 15 MFI.
With “WT LukE LukE/LukS^DR2 (DR2, residues 140 to 150, replaced by the corresponding region of LukS-PV)”, the response is 9.8 MFI.
“WT LukE LukE/LukS^DR3 (DR3, residues 164 to 178, replaced by the corresponding region of LukS-PV)”: the response was found to be 11 MFI.
Consider “WT LukE LukE/LukS^DR4 (DR4, residues 182 to 196, replaced by the corresponding region of LukS-PV)”, for which the response is 9.3 MFI.

The same assay, now with this note: 596 nM unlabeled LukE variant; DyLight488-LukE 595 nM; LukD DN 565 nM; parent: est. 9.2; read off a plot.
For the substance “WT LukE LukE/LukS^DR1 (DR1, residues 57 to 75, replaced by the corresponding region of LukS-PV)”, the response was found to be 14 MFI.
Consider “WT LukE LukE/LukS^DR2 (DR2, residues 140 to 150, replaced by the corresponding region of LukS-PV)”, for which the response stood at 9 MFI.
For the substance “WT LukE LukE/LukS^DR3 (DR3, residues 164 to 178, replaced by the corresponding region of LukS-PV)”, the response turned out to be 9.7 MFI.
As for “WT LukE LukE/LukS^DR4 (DR4, residues 182 to 196, replaced by the corresponding region of LukS-PV)”, the response came out at 8.3 MFI.
